Molecular target: InlPΔLRR5-GST fusion protein (Listeria monocytogenes)
Assay: pull-down; GST or GST fusion bait on Glutathione Sepharose 4B incubated overnight with MDCK cell lysate; beads boiled in SDS sample buffer; Western blot with anti-afadin antibody

afadin (MDCK cells) (natural protein) was tested, and the fold decrease of afadin binding against InlP-GST was over 10 fold.
